The values below come from the nanobody polyreactivity screen of Harvey et al. (2022).

This data set can be described thus: yeast display, Sf9 membrane polyspecificity reagent, FACS + sequencing; frameworks hold sequencing errors. Put shortly: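 A synthetic nanobody library was expressed on Saccharomyces cerevisiae BJ5465 by galactose induction for 36–48 hours. The library was stained for 1 hour at 4 °C with 10% biotinylated, detergent-solubilized Sf9 membrane reagent and enriched with streptavidin microbeads before FACS. Low and high (top ~1%) gates were set on anti-HA fluorescence for expression and streptavidin fluorescence for reagent binding, and each polyreactivity label reflects the gate of origin.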
Take “QVQLVESGGCLVQAGGSLRLSCAASGSTINSYAMGCYRQAPGKERELVAAITWIGGNTYYADSVKGRFTISRDNSKNTVYLQMTSLKPEDTAVYYCGADEYFEYYYWGQGTQVTVSS”: the “polyreactivity (PSR sort gate)” value is reported as “low polyreactivity”.
With “QVQLVESGGGLVQAGGSLRLSCAASGFTFWWYAMGWYRQAPGKERELVASIDTRGGTYYADSVKGRFTISRDNAKNTVYLQMNSLKPEDSAVYYCNADGAYGNYRGGYWGQGTEVTVSS” the entry was “high polyreactivity”; with “QVQLVESGGGLVQAGGSLRLSCAASGSTFLYNTMGWYRQAPGKESELVATITSRGDRTYYADSVKGRFTISRDNAKNTVYLQMNSLKPEDTAVYYCNAYGGNYPQSYRYYYWGQGTQVTVSS”, “low polyreactivity”.
With “QVQLVESGGGLVQAGGSLRLRCAASGFIFARYAMGWYRQAPGKERELVAAITWSGDSTYYAYSVKGRFTISRDNAKYTVYLQMNSLKPEDTAVYYCYPVSGYAKYDYWGQGTQVTVSS” the entry was “low polyreactivity”; with “QVQLVESGGGLVQAGGSLRLSCAASGRILRYYTMGWYRQAPGKERELVAAITWSGGSTNYADSVKGRFTISRDYAKNTVYLQMNSLKPEDSEVYYCNADRRKYYFTYGSWGQGTQVTVSS”, “high polyreactivity”.
With “QVQLVESGGGLVQAGGSLRLSCAASGSIYYAMGWYRQAPGKEREFVAAINSGGSTYYADSVKGRFTISRDNAKNTVYIQMNSLKPEDTAVYYCAKPTYRFYWGDFDYWGQGTQVTVSA” the entry was “low polyreactivity”.
For the sequence “QVQLVESGGGLVQAGGSLRLSCADSGSTFRYYVMGWYRQAPGKERELVARITSAASTNYADSVKGRFTISRDNAKNTVYLQMNSLKPEDTAVYYCAARKYGSRYRLKYDYWGQGTQVTVSS”, the “polyreactivity (PSR sort gate)” value is reported as “high polyreactivity”.
The value for “QVQLVESGGGLVQAGGSLRLSCASSGRIFSNYAMGWYRQAPGKERELVAAISWRTSNTYYADSVKGRFTISRDNAKYTVYLQMNSQKPEDTAVYYCAKYRRFRPYGSNGIYDYWGQGTQVSVSS” was “high polyreactivity”.
As for “QVQLVESGGGLVQAGGSLRLSCAASGSTFPSYAMGWYRQAPGKESELVAAITNGGSTTYADSVKGRFTISRDNAKNTVYLQMNSLKPEDTAVYYCAARYYYYYYYIRRDYWGQGTQVTVSS”, the “polyreactivity (PSR sort gate)” value was “low polyreactivity”.
The value for “QVQLVESGGGLVQAGGSLRLSCAASGFTFQGYVMGWYRQAPGKERELVARITNDGSTTYADSVKGRFTISRDNAKNTVYLQMNTLKPEDTAVYYCARPYRFWRYYGMYYWGQGTQVTVSS” was “high polyreactivity”.
The value for “QVQLVESGGGLVQAGGSLRVSCAASGSTFDVNAMGWYRQAPGKERELVAVITSGGSTNYADSVKGRFTISRDNAKNSVYLQMNSLKPEATAVYYCAKDSRTLYDYWGQGTQVTVSS” was “low polyreactivity”; that for “QVQLVESGGGLVQAGGSLRLSCAASGRIFSKNAMGWYRQAPGKERELVAAISSRGGSTYYADSVKGRFTISRDNAKNTVYLQMNSLKPEDTAVYYCAAGNGAYNYWCRYGYWGQGTQVTVSS” was “high polyreactivity”.
The value for “QVQLVESGGGLVQAGGSLRLSCAASGRIFTLYAMGWYRQAPGKEREFVAAINRGGSTNYADSVKGRFTISRDNAKNTVYLQMNSLKPEDTAVYYCAAKTTSRFRTYSYDYWGQGTQVTVSS” was “high polyreactivity”; that for “QVQLVESGGGLVQAGGSLRLSCAASGRIFHYYAMGWYRQAPGKERELVAASTFRGGNTYADSVKGRFTISRDNAKNTVYLQMNSLKPEDTAVYYCADSRLSGYYSRYGYWGQGTQVTVSS” was “high polyreactivity”.
For “QVQLVESGGGLVQAGGSLRLSCAASGSIIGYNTMGWYRQAPGKERELVAAISYSSGSTHYADSVKGRFTISRDNAKNTVYLQMNSLKPEDTAVYYCNTVRRWSFGYWGQGTQVTVSS”, the “polyreactivity (PSR sort gate)” value is “low polyreactivity”.
With “QDQLVESGGGLVQAGGSLRLSCAASGLIFRIYAMGWYRQAAGKERELVAAITSGGTSTSYADSVKGRFSISRDNAKNTVYLQMNSLKPEDTAVYYCNARWSDRVRIGLDYWGQGTQVTVSS”, the “polyreactivity (PSR sort gate)” value is “high polyreactivity”.
On to “QVQLVESGGGLVQAGGSLRLSCAASGFIFDYYAMGWYRQAPGKERELVAAITSRGGSTYYADSVKGRFTISRDNAKNTVYLQMNSLKQEDTAVYYCAARRRSAEYNYWGHGTQVTVSS”, for which the “polyreactivity (PSR sort gate)” value was “high polyreactivity”.
With “QVQLVESGGGLVQAGGSLRLSCAASGRIFWDNAMGWYRQAPGKERELVADITWRSDSTYYADSVKGRFTISRDNAKNTVYLQMNSLKPEATAVYYCAKPINIYPYDYWGQGTQVTVSS” the entry was “low polyreactivity”.
The value for “QVQLVESGGGLVQAGGSLSLSCAASGRIFRVYAMGWYRQAPGKERELVAAISSRGGRTYYADSVKGRFTISRDNAKNTVYLQMNSLKPEDTAVYYCAADGRSSSRATSRYDYWGQGTQVTVSS” was “high polyreactivity”; that for “QVQLVESGGGLVQAGGSLRLSCAASGSTIVYYAMGWYRQAPGKERELVARITWSGGRTYADSVKGRFTISRDNAKNTVYLQMNSLKPEDTAVYYCNADPGDNTTEYDYWGQGTQVTVSS” was “low polyreactivity”.
With “QVQLVESAGGLVQAGGSLRLSCAASGRIFWLYAMGWYRQAPGKERELVASISQSGANTYYADSVKGRFTISRDNSKNNVYLQMNCLKPEYTSVDYCSSNRYDSYYFWVGYWGQGSQVTVSS” the entry was “low polyreactivity”; with “QVQLVESGGGLVQAGGSLRLSCAASGSTCYSNAMGWYRQAPGNERELVAGISGSGGSTYYADSVKGRFTISRDNAKNTVYLHMNSLKPEDTAVYYCNARKTRSYFRFDSWGQGTQVTVSS”, “low polyreactivity”; with “QVHLVESGAGLVQAGGSLRLSCAASGGIFWVYAMGWYRQAPGKERELGAAISNSDTSTSYADSVKGRFTISRDNAKNTVYLQMTSLKPEDTAVYYCNADSPSLSGDYWGQGTQVTVSS”, “low polyreactivity”.
For the sequence “QVQLVESGGGLVQAGGSLRLSCAASGFIFNHYAMGWYRQAPGKEREFVAAISWSGTRTYYADSVKGRFTISRDNAKNTVYLQMNSLKPEDTSVYYCAADVWGPYDYWGQGTQLTVSS”, the “polyreactivity (PSR sort gate)” value was “low polyreactivity”.
The value for “QVQLVESGGGLVQAGGSLRLSCAASGSTFGYYTMGWYSQAPGKEWELVAAITWSGGSTYYADSVKGRFTISRDNAKNTASLQMNSLKPEDTAVYYCNTDQDLVRSYDYWGQGTQVTVSS” was “low polyreactivity”; that for “QVQLVESGGGLVQAGGSLRLSCAASGRTFPYNARGWYRQAPGKERELVAAISSRGGSTYYADSVKGRFTISRDNAKNTVYLQMNSLKPEDTAVYYCAAQFRFSGMGYWGQGTQVTVSS” was “high polyreactivity”; that for “QVQLVESRGVLVQAGGSLRLSCAASGSIFEWYAMGWYRQAPGKERELVAVISDGSTNYADSVKGRFTISRDNAKKTVYLQMNSLKPEDPAVSYCAADPFDGYSSSEYDYWGQGTQVTVSS” was “low polyreactivity”.
With “QVHLVESGGGLVQAGGSLRLSCAASGFPFGSYAMGWDRPAPGKERELVSGISRGGSTNYADSVKGRFTISRDNAKNTVYLQMNSLKPEDTAVYYCAARAVFVADTGATPAGYDYWGQGTQVTVSS” the entry was “low polyreactivity”; with “QVQLVESGGGLVQAGGSLRLSCAASGSIFARYAMGWYRQAPGKERELVAAINSTVSTNYADSVKGRFTISRDNAKNTVYLQMNSLKPEDTAVYYCAVDIVRGGRDSWGQGTLVTVSS”, “low polyreactivity”.
The value for “QVQLVESGGGLVQAGGSLRLSCAASGFTFRYYAMGWYRQAPGKERELVAAISSRGGTTYYADSVKGRFTISRDNAKNTVYLQMNSLKPEDTAVYYCAAVRPPSYYYWGQGTQVTVSS” was “high polyreactivity”.
On to “QVQLVESGGGLVQAGGSLRLSCAASGSTFQFYAMGWYRQAPGKERELVAVITSGDDTNYADSVKGRFTISRDNAKNTVYLQMNSLKPEDTAVYYCAVEYILVYTRVRSYWFDYWGQGTQVTVSS”, for which the “polyreactivity (PSR sort gate)” value is on record as “low polyreactivity”.
The value for “QVQLVESGGGLDQARGSLRLSCAASGSTFKSYVMGWYRQAPGKVRELVAAISQSGGNTNYADSVKGRFTISRDNAKNTVYLQMNSLKPEDTAVDYCAADVLGTTTTVGGFNYWGQGTQVTVSS” was “low polyreactivity”.
The value for “QVQLVESGGGLVQAGGSLGLSCAASGFTFRNYAMGCYRQAPGKERELVATLSASSGSTYYADSVKGRFTISRDNAKNTVYLQMNSLKPEDTAVYYCAAGLSGYSRKMYYWGQGTQVTESS” was “high polyreactivity”; that for “QVQLVESGGGLVQAGGSLRLICAASGLTLYPYAMGWYRQAPGKERELVAAISGAGTRTYYADSVKGRFTISRDNAKNTVYLQMNSLKPEDTAVYYCAAVGFRPYDYWGQGTQLTVSS” was “high polyreactivity”; that for “QVQLVESGGGLVQAGGSLRLSCAASGRTFLQYAMGWYRQAPGKERELVAANTTSGGDTYYADSVKGRFTISRDNAKNTVYLQMNSMKPDDTAVYYCNAAFRVYIPHVPYFVDFDYWGQGTQVTLSS” was “low polyreactivity”.
With “QVQLVESGGGLVQAGGSLRLSCAASGRIFKYYAMGWYRQAPGKERELVAAITSSGVSTYADSVKGRFTISRDNAKNTVYLQMISLKPEDTAVYYCADDYVREGLGYDYWGQGTQVTVSS” the entry was “low polyreactivity”.
“QVQLVESGGGLVQAGGSLRLSCAASGSIFRGYAMGWYRQAPGKERELVAAINWSGSSTYYADSVKGRFTISRDNAKNTVYLQMYSMKPEDSAVYYCALVYYNRNLGGDYWGQGTQVTVSS”: the “polyreactivity (PSR sort gate)” value is reported as “low polyreactivity”.
The value for “HGQLVESGGGLVQAGGSLRLSCAASGITFTPKDMGWYREAPGKERELVAAISSSDGTTYYADSVTGRFTSSRDNAKNTVYLQMNSLKPEDTAVYYCAAEYYYSPAYDYYSGFKTLYYDWGQGTQVTGSS” was “high polyreactivity”.
The value for “QVHLEESGGRLVQAGGSLRLSCSDSGRIIPRNVMGLYRQAPGKERELVAAISSRGTRTYYADSVKGRFTISRDNAKNTVFLQMNSLKPEDTAVYYCAADGPYDGYDFWGQGTQVTVSS” was “high polyreactivity”.
The value for “QVQLVESGGGLVQAGGSLRLSCAASGRTFISNAMGWYRQAPGKERELVAAISSVGSTNYADSVKGRFTISRDNAKNTVYLQMKSLKPEDTAVYYCAAGRFWFLAHYGGYYWGQGTQVTVSS” was “high polyreactivity”; that for “QVQLVESGVGLVQAGGSLLLSCAASGRIFRVYAMGWYRQAPGKERELVAAISWSGGRTYYADSVKGRFTISRDNAKNTVYLQMNSLKPEDTAVYYCAAERCGPTYYSGGDYDYWGQGTQVTVSS” was “high polyreactivity”.
